The results in this text go back to publication PMC12708450, “Targeting tumor-infiltrating regulatory T cells: combining CD47 and PD-L1 inhibition via a novel aptamer-siRNA chimera”.

For the data set, the target named is PD-L1 (recombinant human) (Homo sapiens, UniProt Q9NZQ7 19-238). As to the kind of experiment: ELONA; 1:1 hyperbolic fit; ELONA: PD-L1 coated in PBS at 4 C overnight; blocked with PBS, 0.1% Tween 20, 1% BSA; wash PBS, 1 mM MgCl2, 0.1% Tween 20, 0.1% BSA; oligo heated 95 C 10 min then on ice 10 min; binding 45 min at room temperature; pH not stated. The following applies: protein: recombinant; label: biotin (ELONA).
PD-L1 (recombinant human), sequence (Q9NZQ7 19-238): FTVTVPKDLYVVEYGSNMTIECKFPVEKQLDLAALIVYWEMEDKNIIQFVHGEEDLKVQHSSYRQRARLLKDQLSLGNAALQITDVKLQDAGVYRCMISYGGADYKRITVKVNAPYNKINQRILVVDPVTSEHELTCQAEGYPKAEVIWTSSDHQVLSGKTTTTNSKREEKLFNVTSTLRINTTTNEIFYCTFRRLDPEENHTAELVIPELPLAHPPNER

B1: PD-L1 aptamer (structured_DNA)
DNA: ACCGACCGTGCTGGACTCATCTCGCTTTTTTCACGGTCCACACTACTATGAGCGAGCCTGGCG
In the case of B1, the Kd was 108 nM.

As usually defined, the Kd is the equilibrium constant for the complex coming apart.
